Measurements as given in the supplement of paper PMC9112550, “Optimization of the antimicrobial peptide Bac7 by deep mutational scanning” (BMC Biology, 2022).

Each sequence was assayed on Escherichia coli TOP10 (assay: shrunken log2 fold change of peptide-encoding DNA abundance (4.5 h post-induction vs induction); higher = less antimicrobial activity (less host growth inhibition)). Conditions: time post-induction: 4.5 h; library: site-saturation at positions 5, 18, 19, 20.
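Also: peptides expressed intracellularly from a pBAD plasmid library in pooled LB shake-flask culture, induced with 0.3% L-arabinose, DNA abundance read by NGS, three biological replicates, DESeq2 with apeglm shrinkage.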

| Sequence | shrunken log2 fold change |
| --- | --- |
| RRIRFRPPRLPRPRPRPVEGPRP | -0.0615 |
| RRIRHRPPRLPRPRPRPMMGPRP | -0.01 |
| RRIRPRPPRLPRPRPRPLRSPRP | 0.167 |
| RRIRHRPPRLPRPRPRPKIGPRP | 0.0776 |
| RRIRQRPPRLPRPRPRPRHIPRP | -0.319 |
| RRIRPRPPRLPRPRPRPKKQPRP | -0.15 |
| RRIRQRPPRLPRPRPRPDREPRP | 0.00931 |
| RRIRARPPRLPRPRPRPDFIPRP | -0.0493 |
| RRIRPRPPRLPRPRPRPEKLPRP | 0.226 |
| RRIRCRPPRLPRPRPRPSKWPRP | -0.0391 |
| RRIRERPPRLPRPRPRPTYSPRP | -0.578 |
| RRIRLRPPRLPRPRPRPIEYPRP | -0.426 |
| RRIRHRPPRLPRPRPRPVIDPRP | -0.395 |
| RRIRTRPPRLPRPRPRPAEAPRP | 0.148 |
| RRIRQRPPRLPRPRPRPMWTPRP | 0.158 |
| RRIRERPPRLPRPRPRPYWVPRP | -0.338 |
| RRIRCRPPRLPRPRPRPYEDPRP | -0.01 |
| RRIRDRPPRLPRPRPRPTHIPRP | -0.656 |
| RRIRHRPPRLPRPRPRPFVDPRP | 0.268 |
| RRIRDRPPRLPRPRPRPPYQPRP | 0.251 |
| RRIRARPPRLPRPRPRPYMCPRP | -0.773 |
| RRIRPRPPRLPRPRPRPIIIPRP | -0.593 |
| RRIRWRPPRLPRPRPRPLKGPRP | 0.0212 |
| RRIRFRPPRLPRPRPRPGLIPRP | -0.0301 |
| RRIRFRPPRLPRPRPRPKYYPRP | -0.386 |

| Sequence | shrunken log2 fold change |
| --- | --- |
| RRIRTRPPRLPRPRPRPWQQPRP | -0.0121 |
| RRIRFRPPRLPRPRPRPPMLPRP | 0.638 |
| RRIRHRPPRLPRPRPRPQHPPRP | -0.396 |
| RRIRGRPPRLPRPRPRPNKDPRP | 0.179 |
| RRIRKRPPRLPRPRPRPFHWPRP | 0.111 |
| RRIRMRPPRLPRPRPRPQSWPRP | 0.141 |
| RRIRRRPPRLPRPRPRPYYRPRP | -0.186 |
| RRIRFRPPRLPRPRPRPSWFPRP | -0.403 |
| RRIRPRPPRLPRPRPRPWFHPRP | 0.0116 |
| RRIRKRPPRLPRPRPRPKNRPRP | 0.226 |
| RRIRQRPPRLPRPRPRPIVFPRP | 0.161 |
| RRIRLRPPRLPRPRPRPHRDPRP | -0.0661 |
| RRIRKRPPRLPRPRPRPFFCPRP | 0.232 |
| RRIRTRPPRLPRPRPRPSHTPRP | -0.0162 |
| RRIRPRPPRLPRPRPRPIMYPRP | -0.175 |
| RRIRMRPPRLPRPRPRPPMTPRP | 0.789 |
| RRIRVRPPRLPRPRPRPLNHPRP | -0.17 |
| RRIRIRPPRLPRPRPRPQEQPRP | -0.0376 |
| RRIRGRPPRLPRPRPRPCQGPRP | 0.242 |
| RRIRYRPPRLPRPRPRPEGVPRP | -0.0041 |
| RRIRSRPPRLPRPRPRPNDSPRP | -0.342 |
| RRIRLRPPRLPRPRPRPWDMPRP | -0.235 |
| RRIRHRPPRLPRPRPRPMLTPRP | 0.0372 |
| RRIRRRPPRLPRPRPRPDQFPRP | -0.0176 |
| RRIRNRPPRLPRPRPRPIKIPRP | -0.357 |

| Sequence | shrunken log2 fold change |
| --- | --- |
| RRIRARPPRLPRPRPRPEVNPRP | 0.291 |
| RRIRFRPPRLPRPRPRPYDFPRP | -0.0848 |
| RRIRCRPPRLPRPRPRPVLNPRP | -0.396 |
| RRIRARPPRLPRPRPRPQMWPRP | 0.102 |
| RRIRSRPPRLPRPRPRPRFPPRP | 0.198 |
| RRIRNRPPRLPRPRPRPDRRPRP | -0.115 |
| RRIRIRPPRLPRPRPRPFDSPRP | 0.0157 |
| RRIRCRPPRLPRPRPRPKWMPRP | 0.361 |
| RRIRCRPPRLPRPRPRPVQTPRP | -0.0555 |
| RRIRNRPPRLPRPRPRPYMSPRP | -0.019 |
| RRIRWRPPRLPRPRPRPFKRPRP | 0.0707 |
| RRIRVRPPRLPRPRPRPHAEPRP | 0.0163 |
| RRIRHRPPRLPRPRPRPYNIPRP | -0.244 |
| RRIRSRPPRLPRPRPRPRMSPRP | 0.0167 |
| RRIRMRPPRLPRPRPRPEKNPRP | 2.16 |
| RRIRIRPPRLPRPRPRPYDVPRP | -0.101 |
| RRIRGRPPRLPRPRPRPNLQPRP | 0.347 |
| RRIRLRPPRLPRPRPRPCMPPRP | -0.579 |
| RRIRCRPPRLPRPRPRPYCIPRP | -0.565 |
| RRIRTRPPRLPRPRPRPNMWPRP | -0.365 |
| RRIRHRPPRLPRPRPRPILSPRP | -0.0163 |
| RRIRRRPPRLPRPRPRPPKWPRP | 0.628 |
| RRIRDRPPRLPRPRPRPPDGPRP | 0.577 |
| RRIRVRPPRLPRPRPRPSMKPRP | -0.363 |
| RRIRARPPRLPRPRPRPQMIPRP | 0.181 |

| Sequence | shrunken log2 fold change |
| --- | --- |
| RRIRDRPPRLPRPRPRPARNPRP | 0.316 |
| RRIRMRPPRLPRPRPRPLWDPRP | 0.437 |
| RRIRVRPPRLPRPRPRPKPSPRP | 0.313 |
| RRIRARPPRLPRPRPRPYEDPRP | -0.117 |
| RRIRSRPPRLPRPRPRPDYDPRP | -0.0947 |
| RRIRPRPPRLPRPRPRPMNAPRP | -0.158 |
| RRIRTRPPRLPRPRPRPLICPRP | -0.277 |
| RRIRPRPPRLPRPRPRPMMFPRP | -0.213 |
| RRIRTRPPRLPRPRPRPEDVPRP | -0.0588 |
| RRIRWRPPRLPRPRPRPSIYPRP | -0.305 |
| RRIRKRPPRLPRPRPRPIIDPRP | -0.139 |
| RRIRKRPPRLPRPRPRPQNFPRP | -0.214 |
| RRIRHRPPRLPRPRPRPDFSPRP | -0.0123 |
| RRIRVRPPRLPRPRPRPLCYPRP | -0.4 |
| RRIRGRPPRLPRPRPRPRHPPRP | 0.442 |
| RRIRHRPPRLPRPRPRPRNVPRP | -0.00885 |
| RRIRQRPPRLPRPRPRPVDLPRP | -0.0892 |
| RRIRRRPPRLPRPRPRPSQLPRP | 0.448 |
| RRIRQRPPRLPRPRPRPDVVPRP | -0.01 |
| RRIRKRPPRLPRPRPRPQFSPRP | 0.0164 |
| RRIRPRPPRLPRPRPRPCCYPRP | -0.47 |
| RRIRARPPRLPRPRPRPMFRPRP | -0.217 |
| RRIRRRPPRLPRPRPRPWDFPRP | 0.0406 |
| RRIRSRPPRLPRPRPRPKCVPRP | -0.138 |
| RRIRLRPPRLPRPRPRPSIMPRP | -0.319 |

| Sequence | shrunken log2 fold change |
| --- | --- |
| RRIRPRPPRLPRPRPRPYMFPRP | -0.897 |
| RRIRTRPPRLPRPRPRPKSKPRP | 0.0217 |
| RRIRSRPPRLPRPRPRPDQDPRP | 0.142 |
| RRIRQRPPRLPRPRPRPVFCPRP | 0.0139 |
| RRIRDRPPRLPRPRPRPDKFPRP | 0.0288 |
| RRIRWRPPRLPRPRPRPACWPRP | 0.517 |
| RRIRWRPPRLPRPRPRPVIVPRP | -0.0785 |
| RRIRQRPPRLPRPRPRPWHTPRP | -0.169 |
| RRIRWRPPRLPRPRPRPGWGPRP | 0.534 |
| RRIRNRPPRLPRPRPRPESMPRP | 0.669 |
| RRIRYRPPRLPRPRPRPHDKPRP | -0.661 |
| RRIRTRPPRLPRPRPRPFDSPRP | -0.258 |
| RRIRGRPPRLPRPRPRPSCEPRP | 0.507 |
| RRIRCRPPRLPRPRPRPWLSPRP | -0.215 |
| RRIRGRPPRLPRPRPRPLLVPRP | 0.781 |
| RRIRNRPPRLPRPRPRPISEPRP | 0.00895 |
| RRIRKRPPRLPRPRPRPYEKPRP | -0.0121 |
| RRIRERPPRLPRPRPRPRMIPRP | -0.0503 |
| RRIRQRPPRLPRPRPRPPWHPRP | 0.187 |
| RRIRSRPPRLPRPRPRPAKRPRP | 0.214 |
| RRIRMRPPRLPRPRPRPRACPRP | 0.593 |
| RRIRCRPPRLPRPRPRPSRTPRP | 0.0175 |
| RRIRYRPPRLPRPRPRPALSPRP | -0.0367 |
| RRIRLRPPRLPRPRPRPQWLPRP | -0.141 |
| RRIRLRPPRLPRPRPRPKQQPRP | -0.134 |

| Sequence | shrunken log2 fold change |
| --- | --- |
| RRIRRRPPRLPRPRPRPEIDPRP | -0.00263 |
| RRIRIRPPRLPRPRPRPWTKPRP | 0.0573 |
| RRIRNRPPRLPRPRPRPFSTPRP | -0.226 |
| RRIRARPPRLPRPRPRPVQDPRP | -0.0965 |
| RRIRGRPPRLPRPRPRPERGPRP | 1.72 |
| RRIRQRPPRLPRPRPRPRRGPRP | 0.502 |
| RRIRGRPPRLPRPRPRPSQHPRP | 0.0187 |
| RRIRDRPPRLPRPRPRPTMYPRP | -0.107 |
| RRIRLRPPRLPRPRPRPKWHPRP | -0.207 |
| RRIRGRPPRLPRPRPRPVAIPRP | 0.949 |
| RRIRHRPPRLPRPRPRPCFGPRP | 0.104 |
| RRIRHRPPRLPRPRPRPMTCPRP | -0.137 |
| RRIRLRPPRLPRPRPRPIWGPRP | 0.112 |
| RRIRHRPPRLPRPRPRPTPWPRP | 0.692 |
| RRIRHRPPRLPRPRPRPFSVPRP | -1.26 |
| RRIRYRPPRLPRPRPRPADLPRP | -0.00419 |
| RRIRIRPPRLPRPRPRPDPNPRP | -0.546 |
| RRIRYRPPRLPRPRPRPQMLPRP | -0.846 |
| RRIRCRPPRLPRPRPRPDMTPRP | -0.00325 |
| RRIRRRPPRLPRPRPRPDPRPRP | 0.12 |
| RRIRKRPPRLPRPRPRPGYDPRP | -0.0159 |
| RRIRYRPPRLPRPRPRPDIAPRP | -0.0285 |
| RRIRDRPPRLPRPRPRPAPCPRP | 0.658 |
| RRIRMRPPRLPRPRPRPWPEPRP | 0.735 |
| RRIRYRPPRLPRPRPRPIGHPRP | 3.4 |
